Experiments:
Experiment in all cases: SPR; Biacore T200; antibody captured on anti-human Fc (CM5 chip); CD30-MBP flowed at 0, 2, 20 nM (T426: 0, 20, 200 nM), contact 90 s, dissociation 300 s; fit to a 1:1 binding mode; rough-level analysis
Conditions in all cases: both partners purified
[1] = molecular target: T1, BpT107-427
T1 construct: T107 Fv, N side; T427 Fv, C side; one Fab of each Fv; knobs-into-holes Fc; source: Expi293 fragments joined by intein-mediated protein trans-splicing, purified (Superdex 200 Increase); copies: + + +

[2] = molecular target: T2, BpT107-6
T2 construct: T107 Fv, N side; T6 Fv, C side; one Fab of each Fv; knobs-into-holes Fc; source: Expi293 fragments joined by intein-mediated protein trans-splicing, purified (Superdex 200 Increase); copies: + + +

[3] = molecular target: T3, BpT427-6
T3 construct: T427 Fv, N side; T6 Fv, C side; one Fab of each Fv; knobs-into-holes Fc; source: Expi293 fragments joined by intein-mediated protein trans-splicing, purified (Superdex 200 Increase); copies: + + +

[4] = molecular target: T4, BpT107-25
T4 construct: T107 Fv, N side; T25 Fv, C side; one Fab of each Fv; knobs-into-holes Fc; source: Expi293 fragments joined by intein-mediated protein trans-splicing, purified (Superdex 200 Increase); copies: + + +

[5] = molecular target: T5, BpT104-6
T5 construct: T104 Fv, N side; T6 Fv, C side; one Fab of each Fv; knobs-into-holes Fc; source: Expi293 fragments joined by intein-mediated protein trans-splicing, purified (Superdex 200 Increase); copies: + + +

[6] = molecular target: T6, BpT25-427
T6 construct: T25 Fv, N side; T427 Fv, C side; one Fab of each Fv; knobs-into-holes Fc; source: Expi293 fragments joined by intein-mediated protein trans-splicing, purified (Superdex 200 Increase); copies: + + +

[7] = molecular target: T7, BpT427-405
T7 construct: T427 Fv, N side; T405 Fv, C side; one Fab of each Fv; knobs-into-holes Fc; source: Expi293 fragments joined by intein-mediated protein trans-splicing, purified (Superdex 200 Increase); copies: + + +

[8] = molecular target: T8, BpT25-6
T8 construct: T25 Fv, N side; T6 Fv, C side; one Fab of each Fv; knobs-into-holes Fc; source: Expi293 fragments joined by intein-mediated protein trans-splicing, purified (Superdex 200 Increase); copies: + + +

[9] = molecular target: T9, BpT105-107
T9 construct: T105 Fv, N side; T107 Fv, C side; one Fab of each Fv; knobs-into-holes Fc; source: Expi293 fragments joined by intein-mediated protein trans-splicing, purified (Superdex 200 Increase); copies: + + +

[10] = molecular target: T10, BpT405-6
T10 construct: T405 Fv, N side; T6 Fv, C side; one Fab of each Fv; knobs-into-holes Fc; source: Expi293 fragments joined by intein-mediated protein trans-splicing, purified (Superdex 200 Increase); copies: + + +

[11] = molecular target: T11, BpT25-405
T11 construct: T25 Fv, N side; T405 Fv, C side; one Fab of each Fv; knobs-into-holes Fc; source: Expi293 fragments joined by intein-mediated protein trans-splicing, purified (Superdex 200 Increase); copies: + + +

[12] = molecular target: T12, BpT107-104
T12 construct: T107 Fv, N side; T104 Fv, C side; one Fab of each Fv; knobs-into-holes Fc; source: Expi293 fragments joined by intein-mediated protein trans-splicing, purified (Superdex 200 Increase); copies: + + +
T12 sequence (chain, as listed by the source, chain 1 of 4): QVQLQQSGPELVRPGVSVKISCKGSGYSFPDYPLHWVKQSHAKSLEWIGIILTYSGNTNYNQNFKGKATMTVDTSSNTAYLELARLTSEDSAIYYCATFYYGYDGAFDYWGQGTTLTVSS
T12 sequence (chain, as listed by the source, chain 2 of 4): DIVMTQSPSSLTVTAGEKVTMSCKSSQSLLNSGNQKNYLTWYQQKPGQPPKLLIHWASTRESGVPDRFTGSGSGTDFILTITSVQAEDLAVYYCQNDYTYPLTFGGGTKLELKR
T12 sequence (chain, as listed by the source, chain 3 of 4): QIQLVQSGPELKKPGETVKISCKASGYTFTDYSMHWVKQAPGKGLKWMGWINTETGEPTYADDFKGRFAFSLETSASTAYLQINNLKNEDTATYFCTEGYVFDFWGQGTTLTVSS
T12 sequence (chain, as listed by the source, chain 4 of 4): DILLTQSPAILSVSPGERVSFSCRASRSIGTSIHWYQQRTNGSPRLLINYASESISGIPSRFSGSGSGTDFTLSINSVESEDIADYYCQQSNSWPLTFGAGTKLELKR

T8 sequence (chain, as listed by the source, chain 1 of 4): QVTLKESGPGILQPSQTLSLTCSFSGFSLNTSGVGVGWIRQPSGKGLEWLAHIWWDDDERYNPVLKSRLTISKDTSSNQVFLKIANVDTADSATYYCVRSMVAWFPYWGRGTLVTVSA
T8 sequence (chain, as listed by the source, chain 2 of 4): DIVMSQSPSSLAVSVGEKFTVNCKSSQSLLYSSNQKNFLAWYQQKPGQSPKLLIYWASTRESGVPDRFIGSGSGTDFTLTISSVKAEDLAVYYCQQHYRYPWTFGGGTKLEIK
T8 sequence (chain, as listed by the source, chain 3 of 4): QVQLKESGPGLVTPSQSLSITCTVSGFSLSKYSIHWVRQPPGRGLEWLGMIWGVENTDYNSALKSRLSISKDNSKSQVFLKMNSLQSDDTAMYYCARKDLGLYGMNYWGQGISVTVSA
T8 sequence (chain, as listed by the source, chain 4 of 4): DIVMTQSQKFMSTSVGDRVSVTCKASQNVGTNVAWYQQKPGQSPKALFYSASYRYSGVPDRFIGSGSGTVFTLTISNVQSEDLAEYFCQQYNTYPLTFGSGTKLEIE
T6 sequence (chain, as listed by the source, chain 3 of 4): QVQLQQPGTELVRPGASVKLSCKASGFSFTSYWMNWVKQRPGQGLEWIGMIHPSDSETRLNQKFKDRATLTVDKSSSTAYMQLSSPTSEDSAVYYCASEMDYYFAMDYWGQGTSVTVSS
T6 sequence (chain, as listed by the source, chain 4 of 4): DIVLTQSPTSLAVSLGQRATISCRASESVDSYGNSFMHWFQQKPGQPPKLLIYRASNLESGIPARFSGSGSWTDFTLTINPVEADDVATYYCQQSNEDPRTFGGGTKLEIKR
T9 sequence (chain, as listed by the source, chain 1 of 4): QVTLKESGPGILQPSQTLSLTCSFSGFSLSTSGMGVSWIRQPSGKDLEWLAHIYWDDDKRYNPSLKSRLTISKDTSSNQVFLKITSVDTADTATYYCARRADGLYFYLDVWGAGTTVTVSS
T9 sequence (chain, as listed by the source, chain 2 of 4): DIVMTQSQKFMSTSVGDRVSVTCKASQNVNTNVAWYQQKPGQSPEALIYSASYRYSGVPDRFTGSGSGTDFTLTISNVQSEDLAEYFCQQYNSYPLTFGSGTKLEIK

B1: Maltose-binding protein-fused CD30 (domain or fragment)
chain: FPQDRPFEDTCHGNPSHYYDKAVRRCCYRCPMGLFPTQQCPQRPTDCRKQCEPDYYLDEADRCTACVTCSRDDLVEKTPCAWNSSRVCECRPGMFCSTSAVNSCARCFFHSVCPAGMIVKFPGTAQKNTVCEPASPGVSPACASPENCKEPSSGTIPQAKPTPVSPATSSASTMPVRGGTRLAQEAASKLTRAPDSPSSVGRPSSDPGLSPTQPCPEGSGDCRKQCEPDYYLDEAGRCTACVSCSRDDLVEKTPCAWNSSRTCECRPGMICATSATNSCARCVPYPICAAETVTKPQDMAEKDTTFEAPPLGTQPDCN
modifications: Construct 1-336 includes signal peptide 1-18, taken as cleaved on secretion; C-terminal MBP carrier and His tag left out; disulfide-bonded, likely glycosylated (Expi293)
- Kd [1]: 0.6 nM
- Kd [2]: 0.37 nM
- Kd [3]: 0.26 nM
- Kd [4]: 0.87 nM
- Kd [5]: 0.59 nM
- Kd [6]: 0.57 nM
- Kd [7]: 0.31 nM
- Kd [8]: 0.46 nM
- Kd [9]: 0.26 nM
- Kd [10]: 0.44 nM
- Kd [11]: 0.91 nM
- Kd [12]: 0.4 nM

— paper PMC11826918, “Generation of antagonistic biparatopic anti-CD30 antibody from an agonistic antibody by precise epitope determination and utilization of structural characteristics of CD30 molecule” (Antibody Therapeutics, 2025)
